One assay concerns the target human GLP-1 receptor (human, UniProt P43220 24-463). The experiment in a line: cell-based or functional assay.
The target of the next assay is T1, human GIP receptor (human, UniProt P48546 22-466).
T1 sequence (looked up): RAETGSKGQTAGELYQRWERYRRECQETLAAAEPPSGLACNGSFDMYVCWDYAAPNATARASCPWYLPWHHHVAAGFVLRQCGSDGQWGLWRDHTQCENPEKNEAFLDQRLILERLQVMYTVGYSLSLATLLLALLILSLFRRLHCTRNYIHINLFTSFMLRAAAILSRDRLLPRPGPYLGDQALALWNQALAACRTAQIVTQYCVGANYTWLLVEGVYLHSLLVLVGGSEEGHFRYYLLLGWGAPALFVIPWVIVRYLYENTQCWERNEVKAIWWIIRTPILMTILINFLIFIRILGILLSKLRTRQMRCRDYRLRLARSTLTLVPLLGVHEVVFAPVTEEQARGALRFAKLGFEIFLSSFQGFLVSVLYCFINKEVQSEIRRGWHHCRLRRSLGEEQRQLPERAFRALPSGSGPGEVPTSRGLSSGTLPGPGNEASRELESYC
The experiment in a line: cell-based or functional assay.

Square brackets hold non-standard residues; d marks the D form. Aib = CC(C)(N)C(=O)O

B1: Compound 18 (peptide)
peptide: H-Y[Aib]EGTFTSDYSIYLDSKAKRAFVNWLLA[Aib]K-NH2
SMILES: CC[C@H](C)[C@H](NC(=O)[C@H](CO)NC(=O)[C@H](Cc1ccc(O)cc1)NC(=O)[C@H](CC(=O)O)NC(=O)[C@H](CO)NC(=O)[C@@H](NC(=O)[C@H](Cc1ccccc1)NC(=O)[C@@H](NC(=O)CNC(=O)[C@H](CCC(=O)O)NC(=O)C(C)(C)NC(=O)[C@@H](N)Cc1ccc(O)cc1)[C@@H](C)O)[C@@H](C)O)C(=O)N[C@@H](Cc1ccc(O)cc1)C(=O)N[C@@H](CC(C)C)C(=O)N[C@@H](CC(=O)O)C(=O)N[C@@H](CO)C(=O)N[C@@H](CCCCN)C(=O)N[C@@H](C)C(=O)N[C@@H](CCCCN)C(=O)N[C@@H](CCCNC(=N)N)C(=O)N[C@@H](C)C(=O)N[C@@H](Cc1ccccc1)C(=O)N[C@H](C(=O)N[C@@H](CC(N)=O)C(=O)N[C@@H](Cc1c[nH]c2ccccc12)C(=O)N[C@@H](CC(C)C)C(=O)N[C@@H](CC(C)C)C(=O)N[C@@H](C)C(=O)NC(C)(C)C(=O)N[C@@H](CCCCN)C(N)=O)C(C)C
As for B1, the “EC50, cAMP induction in HEK293 cells expressing human GLP-1 R” value with human GLP-1 receptor is 15 pM. Also, in the assay with human GIP receptor, the “EC50, cAMP induction in HEK293 cells expressing human GIP R” value came to 0.36 nM.

B2: Compound 20 (peptide)
peptide: H-Y[Aib]EGTFTSDYSIYLDKKAQRAFVKWLLA[Aib]K-NH2
SMILES: CC[C@H](C)[C@H](NC(=O)[C@H](CO)NC(=O)[C@H](Cc1ccc(O)cc1)NC(=O)[C@H](CC(=O)O)NC(=O)[C@H](CO)NC(=O)[C@@H](NC(=O)[C@H](Cc1ccccc1)NC(=O)[C@@H](NC(=O)CNC(=O)[C@H](CCC(=O)O)NC(=O)C(C)(C)NC(=O)[C@@H](N)Cc1ccc(O)cc1)[C@@H](C)O)[C@@H](C)O)C(=O)N[C@@H](Cc1ccc(O)cc1)C(=O)N[C@@H](CC(C)C)C(=O)N[C@@H](CC(=O)O)C(=O)N[C@@H](CCCCN)C(=O)N[C@@H](CCCCN)C(=O)N[C@@H](C)C(=O)N[C@@H](CCC(N)=O)C(=O)N[C@@H](CCCNC(=N)N)C(=O)N[C@@H](C)C(=O)N[C@@H](Cc1ccccc1)C(=O)N[C@H](C(=O)N[C@@H](CCCCN)C(=O)N[C@@H](Cc1c[nH]c2ccccc12)C(=O)N[C@@H](CC(C)C)C(=O)N[C@@H](CC(C)C)C(=O)N[C@@H](C)C(=O)NC(C)(C)C(=O)N[C@@H](CCCCN)C(N)=O)C(C)C
As to B2, in the assay with human GLP-1 receptor, the “EC50, cAMP induction in HEK293 cells expressing human GLP-1 R” value came out at 9 pM. In addition, the “EC50, cAMP induction in HEK293 cells expressing human GIP R” value with human GIP receptor was found to be 0.049 nM.

B3: Compound 16 (peptide)
peptide: H-Y[Aib]EGTFTSDYSIYLDSKAQRAFVNWLLA[Aib]K-NH2
SMILES: CC[C@H](C)[C@H](NC(=O)[C@H](CO)NC(=O)[C@H](Cc1ccc(O)cc1)NC(=O)[C@H](CC(=O)O)NC(=O)[C@H](CO)NC(=O)[C@@H](NC(=O)[C@H](Cc1ccccc1)NC(=O)[C@@H](NC(=O)CNC(=O)[C@H](CCC(=O)O)NC(=O)C(C)(C)NC(=O)[C@@H](N)Cc1ccc(O)cc1)[C@@H](C)O)[C@@H](C)O)C(=O)N[C@@H](Cc1ccc(O)cc1)C(=O)N[C@@H](CC(C)C)C(=O)N[C@@H](CC(=O)O)C(=O)N[C@@H](CO)C(=O)N[C@@H](CCCCN)C(=O)N[C@@H](C)C(=O)N[C@@H](CCC(N)=O)C(=O)N[C@@H](CCCNC(=N)N)C(=O)N[C@@H](C)C(=O)N[C@@H](Cc1ccccc1)C(=O)N[C@H](C(=O)N[C@@H](CC(N)=O)C(=O)N[C@@H](Cc1c[nH]c2ccccc12)C(=O)N[C@@H](CC(C)C)C(=O)N[C@@H](CC(C)C)C(=O)N[C@@H](C)C(=O)NC(C)(C)C(=O)N[C@@H](CCCCN)C(N)=O)C(C)C
On to B3, for which the “EC50, cAMP induction in HEK293 cells expressing human GLP-1 R” value with human GLP-1 receptor stood at 12 pM. In the assay with human GIP receptor, the “EC50, cAMP induction in HEK293 cells expressing human GIP R” value was found to be 0.053 nM.

B4: Compound 21 (peptide)
peptide: H-Y[Aib]EGTFTSDYSIYLDKKAQRAFVNWLVA[Aib]K-NH2
SMILES: CC[C@H](C)[C@H](NC(=O)[C@H](CO)NC(=O)[C@H](Cc1ccc(O)cc1)NC(=O)[C@H](CC(=O)O)NC(=O)[C@H](CO)NC(=O)[C@@H](NC(=O)[C@H](Cc1ccccc1)NC(=O)[C@@H](NC(=O)CNC(=O)[C@H](CCC(=O)O)NC(=O)C(C)(C)NC(=O)[C@@H](N)Cc1ccc(O)cc1)[C@@H](C)O)[C@@H](C)O)C(=O)N[C@@H](Cc1ccc(O)cc1)C(=O)N[C@@H](CC(C)C)C(=O)N[C@@H](CC(=O)O)C(=O)N[C@@H](CCCCN)C(=O)N[C@@H](CCCCN)C(=O)N[C@@H](C)C(=O)N[C@@H](CCC(N)=O)C(=O)N[C@@H](CCCNC(=N)N)C(=O)N[C@@H](C)C(=O)N[C@@H](Cc1ccccc1)C(=O)N[C@H](C(=O)N[C@@H](CC(N)=O)C(=O)N[C@@H](Cc1c[nH]c2ccccc12)C(=O)N[C@@H](CC(C)C)C(=O)N[C@H](C(=O)N[C@@H](C)C(=O)NC(C)(C)C(=O)N[C@@H](CCCCN)C(N)=O)C(C)C)C(C)C
B4: the “EC50, cAMP induction in HEK293 cells expressing human GLP-1 R” value with human GLP-1 receptor came out at 9 pM. For the same molecule, the “EC50, cAMP induction in HEK293 cells expressing human GIP R” value with human GIP receptor was determined as 0.08 nM.

B5: Compound 17 (peptide)
peptide: H-Y[Aib]EGTFTSDYSIYLDEKAQRAFVNWLLA[Aib]K-NH2
SMILES: CC[C@H](C)[C@H](NC(=O)[C@H](CO)NC(=O)[C@H](Cc1ccc(O)cc1)NC(=O)[C@H](CC(=O)O)NC(=O)[C@H](CO)NC(=O)[C@@H](NC(=O)[C@H](Cc1ccccc1)NC(=O)[C@@H](NC(=O)CNC(=O)[C@H](CCC(=O)O)NC(=O)C(C)(C)NC(=O)[C@@H](N)Cc1ccc(O)cc1)[C@@H](C)O)[C@@H](C)O)C(=O)N[C@@H](Cc1ccc(O)cc1)C(=O)N[C@@H](CC(C)C)C(=O)N[C@@H](CC(=O)O)C(=O)N[C@@H](CCC(=O)O)C(=O)N[C@@H](CCCCN)C(=O)N[C@@H](C)C(=O)N[C@@H](CCC(N)=O)C(=O)N[C@@H](CCCNC(=N)N)C(=O)N[C@@H](C)C(=O)N[C@@H](Cc1ccccc1)C(=O)N[C@H](C(=O)N[C@@H](CC(N)=O)C(=O)N[C@@H](Cc1c[nH]c2ccccc12)C(=O)N[C@@H](CC(C)C)C(=O)N[C@@H](CC(C)C)C(=O)N[C@@H](C)C(=O)NC(C)(C)C(=O)N[C@@H](CCCCN)C(N)=O)C(C)C
Turning to B5, the “EC50, cAMP induction in HEK293 cells expressing human GLP-1 R” value with human GLP-1 receptor is 7.4 pM. Moreover, the “EC50, cAMP induction in HEK293 cells expressing human GIP R” value with human GIP receptor came to 0.021 nM.

B6: Compound 19 (peptide)
peptide: H-Y[Aib]EGTFTSDYSIYLDKKAQKEFVNWLLA[Aib]K-NH2
SMILES: CC[C@H](C)[C@H](NC(=O)[C@H](CO)NC(=O)[C@H](Cc1ccc(O)cc1)NC(=O)[C@H](CC(=O)O)NC(=O)[C@H](CO)NC(=O)[C@@H](NC(=O)[C@H](Cc1ccccc1)NC(=O)[C@@H](NC(=O)CNC(=O)[C@H](CCC(=O)O)NC(=O)C(C)(C)NC(=O)[C@@H](N)Cc1ccc(O)cc1)[C@@H](C)O)[C@@H](C)O)C(=O)N[C@@H](Cc1ccc(O)cc1)C(=O)N[C@@H](CC(C)C)C(=O)N[C@@H](CC(=O)O)C(=O)N[C@@H](CCCCN)C(=O)N[C@@H](CCCCN)C(=O)N[C@@H](C)C(=O)N[C@@H](CCC(N)=O)C(=O)N[C@@H](CCCCN)C(=O)N[C@@H](CCC(=O)O)C(=O)N[C@@H](Cc1ccccc1)C(=O)N[C@H](C(=O)N[C@@H](CC(N)=O)C(=O)N[C@@H](Cc1c[nH]c2ccccc12)C(=O)N[C@@H](CC(C)C)C(=O)N[C@@H](CC(C)C)C(=O)N[C@@H](C)C(=O)NC(C)(C)C(=O)N[C@@H](CCCCN)C(N)=O)C(C)C
B6: the “EC50, cAMP induction in HEK293 cells expressing human GLP-1 R” value in the assay with human GLP-1 receptor worked out at 7.3 pM. Further, in the assay with human GIP receptor, the “EC50, cAMP induction in HEK293 cells expressing human GIP R” value stood at 0.015 nM.

B7: Compound 2 (peptide)
peptide: H-Y[Aib]EGTFTSDYSI[Aib]LDKKAQRAFVEWLLAQGPSSGAPPPS-NH2
SMILES: CC[C@H](C)[C@H](NC(=O)[C@H](CO)NC(=O)[C@H](Cc1ccc(O)cc1)NC(=O)[C@H](CC(=O)O)NC(=O)[C@H](CO)NC(=O)[C@@H](NC(=O)[C@H](Cc1ccccc1)NC(=O)[C@@H](NC(=O)CNC(=O)[C@H](CCC(=O)O)NC(=O)C(C)(C)NC(=O)[C@@H](N)Cc1ccc(O)cc1)[C@@H](C)O)[C@@H](C)O)C(=O)NC(C)(C)C(=O)N[C@@H](CC(C)C)C(=O)N[C@@H](CC(=O)O)C(=O)N[C@@H](CCCCN)C(=O)N[C@@H](CCCCN)C(=O)N[C@@H](C)C(=O)N[C@@H](CCC(N)=O)C(=O)N[C@@H](CCCNC(=N)N)C(=O)N[C@@H](C)C(=O)N[C@@H](Cc1ccccc1)C(=O)N[C@H](C(=O)N[C@@H](CCC(=O)O)C(=O)N[C@@H](Cc1c[nH]c2ccccc12)C(=O)N[C@@H](CC(C)C)C(=O)N[C@@H](CC(C)C)C(=O)N[C@@H](C)C(=O)N[C@@H](CCC(N)=O)C(=O)NCC(=O)N1CCC[C@H]1C(=O)N[C@@H](CO)C(=O)N[C@@H](CO)C(=O)NCC(=O)N[C@@H](C)C(=O)N1CCC[C@H]1C(=O)N1CCC[C@H]1C(=O)N1CCC[C@H]1C(=O)N[C@@H](CO)C(N)=O)C(C)C
In the case of B7, the “EC50, cAMP induction in HEK293 cells expressing human GLP-1 R” value with human GLP-1 receptor came to 15 pM. Also, in the assay with human GIP receptor, the “EC50, cAMP induction in HEK293 cells expressing human GIP R” value amounted to 0.0068 nM.

Source of the values: patent US20150299281A1 (ZEALAND PHARMA A S, published 2015).
